Assay results reported in a protein production outcome set (Wang et al. 2014).

Test: label from the status in PepcDB records

Row | Sequence | protein production
1 | MNDILQLTIVLIASLIATLVSRRLKIPAVVGQMLVGILIAPSVLGLVHSGHVLEVMSEIGVILLMFLAGIESDLTVLKKNFKASMLVAVGGVIVPLIAFGLVAFGFGYGISTSFFYGIVFAATSVSITVEVLQEYGKLSTRAGSIILGAAVVDDILAVLILSIFTSFKNGGSGSHLFIQFLLELLFFAFLFLVHKLIPRFWKFVQKLPIANKNTIVALIICLGLSLLADSVGMSAVIGSFFAGLAISQTEVSHKIEEYTSAIGYVIFIPVFFVLIAISVQFDSLIHHPWIILLFTFLAILTKFIPAYFVGKASKLSTGESMLIGTGMISRGEMALIVAQIGLTSAIITDEVYSELVIVIILATVLAPFLIKMVLKKYDN | failed
2 | MYAPERQQEILRLARDGGRVDVVSLAEEFQVTAETIRRDLKALDRAGLLRRVHGGAIPAGRLDFEPDLAERESTAADEKDRIARAALAELPAEGTLILDAGSTVARMAAAIPPDASLTVVTHSLPIAARLADHPGIQLHIVGGRVRHRTRAAVDAWALRAYGEIRADVAVVAANGFSVEHGLTTPDLAEAAVKRAALTAARRVVLLADSSKYAQEHFARFGALGDVDLLITDQGLTPEDAGDIERAGTEVVRA | failed
3 | MDYATNCASLPKWHKVPLLSVCIPAYNRPQGLVAAVRSVVAALPREYHDQVEIVITDDSATRTAVDDLLAPWSGHWHYQHNAQRLGMVANWNTSLAKACGEFILLLHDDDYLLPQGITTILATLSQYGSQFDVFLFGVHLVDSHQRCLRRQIPRRQEWLSPAQALRQLLRHSSLVRFPALIWRRSLLDAVGYFDPTYGEATDLYQWLRFFAQKGVYTVPCATAAYRIHDQALTMGMFQAQTLATLGRIFAAAADLSLLSPAELRHCQCDFFHQFILAGTWRFLRRRQWQRAQAVYQLFDLPEVIALGRSRRWQGLRWLLGSWLWLLQQLSS | failed
4 | MSLDRIRLASLHDKVISADAAAAFIQDGMTVGMSGFTRAGEAKAVPQALVERAKQNPLKITLITGASLGNDLDKQLTEAGVLARRLPFQVDNTLRRAINNGEVMFIDQHLSETVEQMRNLQLKRPDVAVIEAIAITEDGGIIPTTSVGNSASFAIFAEKVIVEINTSLSEAFEGLHDIYIPSYRPTRQPIPLTKVDERIGTTAIQIDPAKIVGIVFNDTADSPSTVTLPDDETQGIANHLIAFFEKEVAEGRLPQNLGPLQAGIGSIANAVLTGLKDSNFEDLVMYSEVLQDCTFELIDAGKMKFASGSSITLSAKCGEKVFGNIEAYKDKLVLRPQEISNHPELVRRLGIIGINTALEFDIYGNVNSTHVCGTKMMNGIGGSGDFARNAHLAIFVTKSIAKGGDISSIVPMVSHVDHSEHDVDILVTEQGLADLRGLAPRERARAVIDHCVHPLYKDALNDYFSRASAKGGHTPHLLREALSWHVNFEENGHMLAIEPEAKSA | failed
5 | MAINIIEYNRSYKEELIEFILSIQKNEFNIKIDRDDQPDLENIEHNYLNSGGQFWLAINNHQNIVGTIGLIRLDNNMSALKKMFVDKGYRNLKIGKKLLDKVIMTCKEQNIDGIYLGTIDKFISAQYFYSNNGFREIKRGDLPSSFPKLDVDNRFYYRNLKD | not failed
6 | MKMIQFWFDFASTYSYPAAMQIRQLKDEYRFSLHPFLLGGIFQKQGLNDSPFNAYPVKGQYMWRDLERICQKLDLKFHRPVLFPQNGLLAARIACQYASAPWIFDFICSVYQANFVQNLDIGQPETISQILQNMQLDCNDIIMTSTTDTAKQTLKQNGMIAESLHIFGAPSFVVENELFWGQDRLQDAIDWSQR | failed
7 | MAPNASCLCVHVRSEEWDLMTFDANPYDSVKKIKEHVRSKTKVPVQDQVLLLGSKILKPRRSLSSYGTDKEKTIHLTLKVVKPSDEELPLFLVESGDEAKRHLLQVRRSSSVAQVKAMIETKTGIIPETQIVTCNGKRLEDGKMMADYGIRKGNLLFLASYCIGG | failed
8 | MPATAGRVRMPANNRVHSSAALQTHGIWQSAIGYDPYAPTSKEEPKTTQQKTEDPENSYASFQGLLALARITGSNNDEARGSCKKCGRVGHLTFQCRNFLSTKEDKEKDPGAIEAAVLSGLEKIRRGVGKGEVEEVSSEEEEESESSDSDVDSEMERIIAERFGKKKGGSSVKKTSSVRKKKKRVSDESDSDSDSGDRKRRRRSMKKRSSHKRRSLSESEDEEEGRSKRRKERRGRKRDEDDSDESEDEDDRRVKRKSRKEKRRRRSRRNHSDDSDSESSEDDRRQKRRNKVAASSDSEANVSGDDVSRVGRGSSKRSEKKSRKRHHRKERE | failed
9 | MAESPTEEAATATAGAGAAGPGSSGVAGVVGVSGSGGGFGPPFLPDVWAAAAAAGGAGGPGSGLAPLPGLPPSAAAHGAALLSHWDPTLSSDWDGERTAPQCLLRIKRDIMSIYKEPPPGMFVVPDTVDMTKIHALITGPFDTPYEGGFFLFVFRCPPDYPIHPPRVKLMTTGNNTVRFNPNFYRNGKVCLSILGTWTGPAWSPAQSISSVLISIQSLMTENPYHNEPGFEQERHPGDSKNYNECIRHETIRVAVCDMMEGKCPCPEPLRGVMEKSFLEYYDFYEVACKDRLHLQGQTMQDPFGEKRGHFDYQSLLMRLGLIRQKVLERLHNENAEMDSDSSSSGTETDLHGSLRV | failed
10 | MGKEERAKWVNDEYAKAYEKMKSYGEQVKKADKPRVLYLKRSDLTLQGNDNFIKESMELAGADNIAAEAKSITMEEILKLDPEIILLSDFDKFLPQDLYENRIEGQDWSSVSAVVNKRVYKTPVGIYRWDAPGVETPLMMFWLGKMLQPEILEHHHHHH | failed
11 | MAKEGEHSGAKEVKLTKPKISLSDLTFVIYVTTREKLSSSTISCEEIPLKKCGAELECGSNDRFHIQVENLSHMGISKSRMAGVKIECEVIYKEDSEDEAVVRIVNAERPLGTNFGWLNNDLLAPLAHRGLTAEIQLSFNSELLDKIDLQIFHRGEGRYFSQDDTLGYLQCFFPSKI | failed
12 | MMSNALRRFDPAWFEKYDGIIKHERLGTHVGKPNSSHNYAIEKCVNLMNQGQSIVHALFKQDDVMKREYHIPLNTSIDASRYLLRQGIAFHGHDESEESANKGNFLELVKYTGEQNDATEQMAVVFRFVDKSGTVKERFIEVVHVKETSSASVKSAIDDLFAKYGLSLKTVRGQGYDGASIMKVAKGVAKSFDLLSLLLKIIVVYK | failed
13 | MNDLSQWSISKDSNLDSPWIEGIPGCGIPGAGSLVEHIDRQILVLQRDGRYIVGLLRSYDQYANLVLENTFERFVLNDSYCDEPLGVFIIRGENVALLGEVDGEKESQWLSHLHTVSLEDTKKTIRGKRQATKALLHSQPERVEWTFYDDAFF | not failed
14 | MTFLSQLSTHADKAFLRRLFAIALPITLQSIMFSSRSLVDVLMLGQLGEAEIAAVGVAARATFVTTIMLVGVTTGGALLTAQYWGAGDKIGVRQSTSLTWMIAMVFAALAVCLFVFFPQPIMGLTTDSQEVIELGSSYLVISSASMFAVACVASMAVGLRAMHQPGLSTFFSGIGILSNVFLNWVLIFGHLGFPALGITGAAIATVISGAIEVGCLFGYLWLKKHIIAFGWGDIRASLVLDKITRFLSLSLPTTFNFLAWAGGLFAYHAIMGQAGVQGLAALSVMTPVESIALAMMIGLSNAAAVLVGNQLGAKNFEPVYYQAWATVILNVLIAFGVAVLLFFTNQLILDAFSALSAETRHLAEQFMVILALGVILRSVPMMVIVGVLRAGGDVKFCLYQDVFAQWIIGIPLAAFAAIYLGWEPQWVYLLFLTEEVVKWCICLPRMKSKKWMKNLIEK | not failed
15 | MSTFGKLFRVTTYGESHCKSVGCIVDGVPPGMSLTEADIQPQLTRRRPGQSKLSTPRDEKDRVEIQSGTEFGKTLGTPIAMMIKNEDQRPHDYSDMDKFPRPSHADFTYSEKYGIKASSGGGRASARETIGRVASGAIAEKFLAQNSNVEIVAFVTQIGEIKMNRDSFDPEFQHLLNTITREKVDSMGPIRCPDASVAGLMVKEIEKYRGNKDSIGGVVTCVVRNLPTGLGEPCFDKLEAMLAHAMLSIPASKGFEIGSGFQGVSVPGSKHNDPFYFEKETNRLRTKTNNSGGVQGGISNGENIYFSVPFKSVATISQEQKTATYDGEEGILAAKGRHDPAVTPRAIPIVEAMTALVLADALLIQKARDFSRSVVH | not failed
16 | MRHGEIARAARSAVPRRARAALPLACAALVAAGLAARAAGAAAPPPAPPAAAPARVLSAAVKGPITGGTVEYLEAALARARTGGFAALVVTLDTPGGQLDATREIVQAMLATEVPVIVWVGPAGARAGSAGVFLTLAADVAAMHPTSNIGAAHPVTGAGKDVAEEAGKDMAKKVENDTAAFARSVAAARGRNADWAEKAVRESVSVTAEEALRLKVADLTAADLPELLAKADGRKVGQGAAARPLKVAGAAIEPYEPTVRQRLLGFLADPNVMAILMLVGMLGIAVEFYHPGMIFPGAVGGFCLFLAFLAMRVIPVNVGAVILLLAGVGLLVAEAYVTAHGLAGLAGAACLVLGTLFFVNTSAPGDWFDPGALRLSPWVIWPTPAALALLLAFMAWNVARVRRAPLQLGAPALVGAPGEALSEIGPAAGEAFVHGEYWQARSAAPIPRGAAVRVVAVEGLTVTVVAAGPGNG | failed
17 | MPYMTTDAKEVSGKSFDYIVVGGGTAGCSLAATLSEKYSVLVIERGGSPFGDPLVEERKYFGYSLLNTDEYSSVAQSFTSVDGIENYRGRVLGGSSAINGGFYSRASDEFVKKAGWDKGLVQESYKWVESKVVFMPELTQWQSVVQFGFLEAGFYPYNGYSLEHTQGTKIGGSIYDQCGKRHTSADLLGFGKPNCITVLLNTTVKSIIFDSSNKTRAVGVRFMESDGNSSKSYKVHVEQHRGEVILAAGALGSPQILLLSGIGPENHLKDFDIPVIVNLKEVGRKMSDNPAISLLVDRFSQNRTLEPPQVAAIAEGYKFILESEVLPTDITTTRISIAAKIAFPKSKGRLKLNSTNPRENPSVKFNYLENKADLDACLEMVLHLQHVARSETVTFFLGTQAHDKLVAGDEELKSFCIKNVRTYYHYHGGCVVGSVVDEEYKVNGVKRLRVVDGSTFEESPGTNPMATVLMLGRYQGIKILKEREEQEDTFLSPQGSPQPQP | failed
18 | MKPTLFVLAAGMGSRYGSLKQLDGIGPGGDTIMDYSVYDAIRAGFGRLVFVIRHSFEKEFREKILTKYEGRIPVELVFQELDRLPEGFSCPEGREKPWGTNHAVLMGRDAIREPFAVINADDFYGRNGFEVLARKLMTLEGKQGEYCMVGYRVGNTLSESGGVSRGVCQVDEKHLLTGVVERTGIERTDGTISFRDETGKICTLAEDAPVSMNMWGFTPDYFDYSEELFINFLNAHGQEPKSEFFIPFVVNDLIRSGRASVEVLDTTARWFGVTYSDDRPGVVAKLRELTEAGEYPTKLF | not failed
